# From US20250136709A1 (DEVELOPMENT CENTER FOR BIOTECHNOLOGY, published 2025)
# B1: 10H5 antibody (antibody, V domains shown)
# VH: QVKLQQSGAELVKPGASVKISCKASGYVFSSYWINWVKQRPGKGLEWIGQIYPGDGNTNYNRNFKGKATLTADKSSSTAYMQLSSLTSEDSAVYFCAGFADWGQGTTVTVSS
# VL: DIELTQSPSSLSASLGERVSLTCRASQDIGDSLIWLQQEPDGTIKRLIYATSSLDSGVPKRFSGSRSGTSYSLTISSVEAEDAATYYCQQYSGYPLTFGSGTKLEIK
# notes: Mouse scFv-derived variable domains put into an expression vector with CH and CL chains (full-length chimeric antibody); also called 10H5 chimeric; 10H5 MM
# How the values were obtained:
# [1] = biological target: mCD73hF1-R297K (mouse; human) (UniProt Q61503); assay: ELISA
# [2] = biological target: mouse CD73-D296E-K297R (mouse) (UniProt Q61503); assay: ELISA
# human CD73 [3] = biological target: T1, human CD73 (human, UniProt P21589 27-549); assay: Biacore SPR
# T1 construct: the antigen of the Biacore assay is only called human CD73 antigen; also called human CD73 antigen; Recombinant Human CD73-6xHis
# T1 sequence: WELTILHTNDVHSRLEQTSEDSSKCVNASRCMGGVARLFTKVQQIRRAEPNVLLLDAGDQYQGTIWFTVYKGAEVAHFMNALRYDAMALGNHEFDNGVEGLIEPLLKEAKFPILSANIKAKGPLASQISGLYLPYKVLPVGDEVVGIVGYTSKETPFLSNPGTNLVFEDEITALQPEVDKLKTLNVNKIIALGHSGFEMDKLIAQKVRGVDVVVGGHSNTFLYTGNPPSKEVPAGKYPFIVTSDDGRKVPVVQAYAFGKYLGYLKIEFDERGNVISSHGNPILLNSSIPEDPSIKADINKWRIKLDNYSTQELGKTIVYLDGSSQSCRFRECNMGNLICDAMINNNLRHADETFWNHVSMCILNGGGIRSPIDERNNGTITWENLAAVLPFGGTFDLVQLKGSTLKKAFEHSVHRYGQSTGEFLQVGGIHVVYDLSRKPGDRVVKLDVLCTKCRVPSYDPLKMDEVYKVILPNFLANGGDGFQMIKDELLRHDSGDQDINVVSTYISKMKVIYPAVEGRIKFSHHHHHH
# [4] = biological target: T2, human CD73 on cells (MDA-MB-231, Calu-1, KLM-1, human CD4+ T-cells) (human, UniProt P21589 27-549); assay: cell-based or functional assay
# T2 sequence: T1 sequence
# human CD73 [5] = biological target: T1, human CD73; assay: Biacore SPR; remark: listed apart in the source
# mCD73hF1 (mouse; human) [6] = biological target: mCD73hF1 (mouse; human) (UniProt Q61503); assay: ELISA, antibody titrated; panel mCD73 hF1
# mCD73hF4 = biological target: T3, mCD73hF4 (human; mouse, UniProt Q61503 307-551, limits assumed); assay: ELISA, antibody titrated; panel mCD73 hF4
# T3 construct: Mouse-human domain swapping protein, expressed in F293 cells
# T3 sequence: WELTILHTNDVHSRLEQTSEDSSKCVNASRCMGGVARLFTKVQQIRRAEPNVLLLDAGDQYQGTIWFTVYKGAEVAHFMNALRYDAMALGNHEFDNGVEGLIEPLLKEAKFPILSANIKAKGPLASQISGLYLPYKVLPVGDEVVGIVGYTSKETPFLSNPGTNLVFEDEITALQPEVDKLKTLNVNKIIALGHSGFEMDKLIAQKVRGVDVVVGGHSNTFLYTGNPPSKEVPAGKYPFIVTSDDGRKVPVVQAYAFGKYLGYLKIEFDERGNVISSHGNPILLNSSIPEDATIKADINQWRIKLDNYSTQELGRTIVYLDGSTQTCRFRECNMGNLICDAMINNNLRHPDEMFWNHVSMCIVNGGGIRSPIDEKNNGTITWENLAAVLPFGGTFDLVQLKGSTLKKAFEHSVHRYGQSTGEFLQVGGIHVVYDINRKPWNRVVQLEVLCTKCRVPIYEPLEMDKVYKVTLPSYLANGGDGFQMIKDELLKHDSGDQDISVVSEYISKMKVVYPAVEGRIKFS
# mCD73hF1-K206A-N211G = biological target: T4, mCD73hF1-K206A-N211G (mouse; human, UniProt Q61503 29-270; Q61503 307-551); assay: ELISA, antibody titrated; panel mCD73 hF1 K206A N211G
# T4 chain: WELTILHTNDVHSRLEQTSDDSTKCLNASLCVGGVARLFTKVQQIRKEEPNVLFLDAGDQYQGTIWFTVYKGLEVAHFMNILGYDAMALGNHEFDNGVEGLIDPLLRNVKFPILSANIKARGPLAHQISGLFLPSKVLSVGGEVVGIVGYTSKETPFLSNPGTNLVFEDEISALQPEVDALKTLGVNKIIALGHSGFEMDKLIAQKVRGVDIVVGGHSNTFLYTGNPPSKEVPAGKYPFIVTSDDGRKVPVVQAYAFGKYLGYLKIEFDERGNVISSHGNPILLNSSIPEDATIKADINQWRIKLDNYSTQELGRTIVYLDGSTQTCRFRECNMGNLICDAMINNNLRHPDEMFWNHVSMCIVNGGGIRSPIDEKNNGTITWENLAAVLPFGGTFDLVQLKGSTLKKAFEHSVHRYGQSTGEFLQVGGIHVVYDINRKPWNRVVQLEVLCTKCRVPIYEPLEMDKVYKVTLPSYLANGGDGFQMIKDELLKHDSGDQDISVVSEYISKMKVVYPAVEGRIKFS
# mCD73hF2 (mouse; human) = mCD73hF2 (mouse; human) (UniProt Q61503); assay: ELISA, antibody titrated; panel mCD73 hF2
# [7] = biological target: mCD73hF1-S269A (mouse; human) (UniProt Q61503); assay: ELISA, 10H5 titrated on the mutant protein
# [8] = biological target: mouse CD73-D296E-K297R (mouse) (UniProt Q61503); assay: ELISA, 10H5 titrated on the mutant protein
# mCD73hF1 (mouse; human) [9] = biological target: mCD73hF1 (mouse; human) (UniProt Q61503); assay: ELISA, antibody titrated; right panel mCD73 hF1
# mCD73hF3 (mouse; human) = mCD73hF3 (mouse; human) (UniProt Q61503); assay: ELISA, antibody titrated; panel mCD73 hF3
binder,measurement,setting,value
B1,binding affinity relative to that to mCD73hF1,[1],0.1 fold
same,Kd,[2],0.098 nM
same,Kd,human CD73 [3],0.683 nM
same,"AMP concentration in supernatant by LC/MS, MDA-MB-231 cells, 400 µM AMP, 10 nM antibody, 6 hours",[4],347 µM
same,"AMP concentration in supernatant by LC/MS, MDA-MB-231 cells, 400 µM AMP, 10 nM antibody, 24 hours",[4],290 µM
same,"AMP consumption, Calu-1 cells, 10 nM antibody, 24 hrs",[4],< 20%
same,"AMP consumption, MDA-MB-231 cells, 10 nM antibody, 6 hr",[4],< 10%
same,"AMP consumption, MDA-MB-231 cells, 10 nM antibody, 24 h",[4],< 50%
same,koff,human CD73 [5],5.78e-05 s⁻¹
same,kon,human CD73 [5],84600 M⁻¹ s⁻¹
same,EC50 (read off the curve),mCD73hF1 (mouse; human) [6],0.3 nM
same,EC50 (read off the curve),mCD73hF4,~0.2 nM
same,EC50 (read off the curve),mCD73hF1-K206A-N211G,~0.2 nM
same,EC50 (read off the curve),mCD73hF2 (mouse; human),0.2 nM
same,EC50 (read off the curve),[7],0.5 nM
same,EC50 (read off the curve),[8],0.2 nM
same,EC50 (read off the curve),mCD73hF1 (mouse; human) [9],0.3 nM
same,EC50 (read off the curve),mCD73hF3 (mouse; human),0.2 nM
